Measured values: patent US20220112288A1 (published 2022)
Blank lines part the entries; values can stand above or below the binder they belong to.

Assays:
[1] = biological target: T1, human CD8 on human pan T cells (CD4-negative population) (human, UniProt P01732 22-235; P10966 22-210); experiment: flow cytometry, 20 nM antibody on human pan T cells, A647 anti-human IgG Fc; geomean ratio in CD4-negative population
T1 construct: whole, on cells; Target is CD8 as it stands on primary human pan T cells
T1 sequence (P01732 22-235, chain 1 of 2): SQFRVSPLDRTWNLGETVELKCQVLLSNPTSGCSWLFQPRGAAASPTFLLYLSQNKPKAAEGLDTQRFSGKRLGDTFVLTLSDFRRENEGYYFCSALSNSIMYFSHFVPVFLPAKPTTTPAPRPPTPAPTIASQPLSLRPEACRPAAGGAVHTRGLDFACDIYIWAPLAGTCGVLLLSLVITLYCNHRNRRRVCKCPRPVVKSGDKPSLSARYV
T1 sequence (P10966 22-210, chain 2 of 2): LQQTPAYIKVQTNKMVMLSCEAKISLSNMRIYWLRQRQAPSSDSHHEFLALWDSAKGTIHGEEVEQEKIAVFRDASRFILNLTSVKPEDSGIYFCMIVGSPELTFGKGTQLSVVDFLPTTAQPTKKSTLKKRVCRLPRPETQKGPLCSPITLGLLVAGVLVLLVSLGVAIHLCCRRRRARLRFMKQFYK

[2] = biological target: T2, Rhesus macaque CD4-HIS (Acro Biosystems, Cat. CD4-C52H7) (rhesus macaque, UniProt P16003 26-390); experiment: BLI Octet, mAb on anti-mouse Fc sensor, rhesus CD4-HIS 25-100 nM
T2 construct: Bought reagent; also called Rhesus CD4; rhesus CD4-HIS; not shown: His tag
T2 sequence (P16003 26-390 limits assumed): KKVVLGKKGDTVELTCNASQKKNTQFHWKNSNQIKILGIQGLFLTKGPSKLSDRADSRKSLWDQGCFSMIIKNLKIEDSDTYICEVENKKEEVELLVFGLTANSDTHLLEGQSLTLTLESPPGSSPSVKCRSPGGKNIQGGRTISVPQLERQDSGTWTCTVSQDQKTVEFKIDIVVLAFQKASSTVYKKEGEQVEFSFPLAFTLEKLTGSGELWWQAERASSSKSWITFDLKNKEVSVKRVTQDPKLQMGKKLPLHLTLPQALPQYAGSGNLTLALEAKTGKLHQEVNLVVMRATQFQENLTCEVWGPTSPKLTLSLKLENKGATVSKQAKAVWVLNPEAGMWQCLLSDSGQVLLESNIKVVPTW

[3] = biological target: T3, human CD4 on cells (SKW3 cells; human PBMCs) (human, UniProt P01730 26-458); experiment: FACS confirmation, supernatant on human PBMCs, anti-mFc 647, percent of viable cells
T3 construct: whole, on cells; SKW3 CD4 knockout cells served as the negative cell line for the WT vs KO ratios; also called hCD4; SKW3 WT

[4] = biological target: T3, human CD4 on cells (SKW3 cells; human …); experiment: SKW3 FACS binning; competitor RPA-T4-PE-Dazzle 594 added after supernatant (background 783, max binding 15000)
[5] = biological target: T3, human CD4 on cells (SKW3 cells; human …); experiment: FACS confirmation, supernatant on SKW3 WT cells, anti-hu Kappa FITC (Bkrd gMFI = 2500)
[6] = biological target: T3, human CD4 on cells (SKW3 cells; human …); experiment: FACS confirmation, supernatant on human PBMCs, anti-mFc 647, CD4+ gate
[7] = biological target: T3, human CD4 on cells (SKW3 cells; human …); experiment: FACS confirmation, supernatant on SKW3 WT cells, anti-mFc 647 (Bkrd gMFI = 3300)
[8] = biological target: T3, human CD4 on cells (SKW3 cells; human …); experiment: FACS primary screen, non-clonal hybridoma supernatant; SKW3 WT vs SKW3 CD4 KO cells, anti-mFc-647
[9] = biological target: T3, human CD4 on cells (SKW3 cells; human …); experiment: SKW3 FACS binning; competitor OKT4-A488 added after supernatant (background 2163, max binding 8200)
[10] = biological target: T3, human CD4 on cells (SKW3 cells; human …); experiment: FACS primary screen, non-clonal hybridoma supernatant; SKW3 WT vs SKW3 CD4 KO cells, anti-hKappa-FITC
[11] = biological target: T3, human CD4 on cells (SKW3 cells; human …); experiment: SKW3 FACS binning; competitor OKT4a added after supernatant, anti-hu A647 secondary (background 5000, max binding 35000)
huCD4-HIS = biological target: T4, huCD4-HIS (human, UniProt P01730 26-390, limits assumed); experiment: ELISA binning; competitor Ibalizumab, 100 ng/mL huCD4-HIS, anti-HIS HRP detection (background 45, max binding 3000000)
T4 construct: Named only in the head of the ELISA binning column; not shown: HIS tag

Cell Binding to Human PanT Signal/Background (of CD4 negative population) [1]: 1 signal/background
B1: CD8B311 (antibody, human IgG1, kappa, V domains shown)
VH: QVQLKESGPELVKPGASVKLSCKASGYTFTSYWMHWVKQRPGQGLEWIGMIHPNSGSTNYNEKFKSKATLTVDKSSSTAYMQLSSLTSEDSAVYYCARCGYDGAWFAYWGQGTSVTVSS
VL: DIQMTQTTSSLSASLGDRVTISCSASQGISNCLNWYQQKPDGTVKLLIHYTSSLHSGVPSRFSGGGSGTHYSLTISNLEPEDIATYYCQQYSKVPYTFGSGTKLEIKR
notes: Full-length human IgG1, kappa

Cell Binding to Human PanT Signal/Background (of CD4 negative population) [1]: 20 signal/background
B2: CD8B248 (antibody, human IgG1, kappa, V domains shown)
VH: EVQLQQSGAELARPGASVKMSCKASGYTFTTYTMHWVKQRPGQGLEWIGYINPSSGYTKYNQKFTDKATLTADKSSSTAYMQLSSLTSEDSAVYYCARLWAYWGQGTLVTVSA
VL: DVVMTQTPLSLPVSLGDQASISCRSSQSLVHSSGNTYLHWYLQKPGQSPKLLIYKGSNRFSGVSDRFSGSGSGTDFTLKISRVEAEDLGVYFCSQSTHVPFTFGSGTKLEMKR
notes: Full-length human IgG1, kappa

Cell Binding to Human PanT Signal/Background (of CD4 negative population) [1]: 23 signal/background
B3: CD8B254 (antibody, human IgG1, kappa, V domains shown)
VH: EVQLQQSGAELVKPGASVKMSCKTSGYTFSSYWITWVKQRPGQGLEWVGDIYPGSGSTNYNEKFKSKAALTVDTSSSTAFMQLNSLTSEDSAVYYCARESITTRITPFDHWGQGTTLTVSS
VL: DVVMTQTPLSLPVSLGDQASISCRSSQSLVHSSGNTYLHWYLQKPGQSPKLLIYKGSNRFSGVSDRFSGSGSGTDFTLKISRVEAEDLGVYFCSQSTHVPFTFGSGTKLEIKR
notes: Full-length human IgG1, kappa

Cell Binding to Human PanT Signal/Background (of CD4 negative population) [1]: 36 signal/background
B4: CD8B186 (antibody, human IgG1, kappa, V domains shown)
VH: QVQLQQSGAELAKPGASVKMSCKASGYIFTSYWMHWVKQRPGQGLEWIGNINPSSGYAVYNQKFKDKATLTADQSSSTAYIQLNSLTSEDSAVYYCARRVFYGDSWFAYWGQGTSVTVSS
VL: DVQMIQSPASLSASVGETVTITCRASGNIHNYLAWYQQKQGKSPQLLVYNAKTLADGVPSRFSGSGSGTQYSLKINSLQPEDFGSYYCQHFWSTTWTFGGGTKLEIKR
notes: Full-length human IgG1, kappa

Cell Binding to Human PanT Signal/Background (of CD4 negative population) [1]: 22 signal/background
B5: CD8B192 (antibody, human IgG1, kappa, V domains shown)
VH: QVQLQQSGPVLVKPGASVKMSCKASGYTFTDYYMNWVMQSHGKSLEWIGVINPYNGGTTYNQRFTGKATLTVDKSSSTAYMELNSLTSEDSAVYYCARNYGAMDSWGQGTSVTVSS
VL: DIQMTQSPASLSASVGETVTITCRASGNIHNYLAWYQQKQGKSPQLLVSNAKTLADGVPSRFGGSGSGTQYSLKINSLQPEDFGSYYCQHFWITPPTFGAGTRLEIKR
notes: Full-length human IgG1, kappa

Cell Binding to Human PanT Signal/Background (of CD4 negative population) [1]: 4 signal/background
B6: CD8B362 (antibody, human IgG1, kappa, V domains shown)
VH: EVKLVESGAELVKPGASVKLSCTASGFNIKDTYMHWVKQRPEQGLEWIGRIDPANGHTKFDPKFQGKATITADTSSNTAYLQLSSLTSEDTAVYYCAIRFAYWGQGTLVTVSA
VL: DIQMTQSPSSLSASLGDRVSLTCRASHEISGYLSWLQQKPDGTFKRLIYAASTLDSGVPKRFSGSRSGSDYSLSISSLESEDFADYYCLQYSSYPYTFGSGTKLEMKR
notes: Full-length human IgG1, kappa

Cell Binding to Human PanT Signal/Background (of CD4 negative population) [1]: 61 signal/background
B7: CD8B250 (antibody, human IgG1, kappa, V domains shown)
VH: QVQLKESGPGLVAPSQSLSITCTVSGFSLSNYVVHWVRQSPGKGLEWLGVIWTDGSTDYNAAFISRLSISKDNSKSQVFFKMNSLQADDTAIYYCARNNGYFPAFFAYWGQGTLVTVSA
VL: DIVMTQSQKFMSTSVGDRVSVTCKASQNVDTDITWYQQKPGQSPKALIYSASYRYSGVPDRFTGSGSGTDFTLTITNVQSEDLAEYFCQQYNSYPLTFGSGTKLEMKR
notes: Full-length human IgG1, kappa

Cell Binding to Human PanT Signal/Background (of CD4 negative population) [1]: 1980 signal/background
B8: CD8B337 (antibody, human IgG1, kappa, V domains shown)
VH: QVTLKESGPGKVQPSQTLSLTCSFSGFSLSTSGMGVSWIRKPSGKGLEWLAHIFWDDDRRYKSSLKSRLTISKDTSSNQVFLMITSVDTADSATYYCARRVGYGDYAYFDVWGAGTTVTVSS
VL: DIQMTQYPASLSVSVGETVTITCRASENIYSDLAWYQQKQGKSPQLLVYAATNLADGVPSRFSGSGSGTQYSLKINSLQSEDFGNYYCQHFWGTPWTFGGGTKLEIKR
notes: Full-length human IgG1, kappa

Cell Binding to Human PanT Signal/Background (of CD4 negative population) [1]: 1610 signal/background
B9: CD8B324 (antibody, human IgG1, kappa, V domains shown)
VH: QVQLQQPGADLVKPGASVKLSCKASGYTSTSHWIHWVKQRPGQGLEWIGNIYPGSSSTNYNEKFKRMATLTVDTSSSTVYMVLSSLTSDDSAVYYCARHSPGHRDYAMDYWGLGTSVTVSS
VL: DIVMTQSQKFMPTTVGDRVSITCKASQNVGTAVAWYQQKPGQSPKLLIASASNRYTGVPDRFTGSGSGTDFTLTISTMQSEDLADYFCQQYSTYPLTFGAGTKLEMKR
notes: Full-length human IgG1, kappa

binding result [2]: no binding (tested: 100 nM)
B10: 75110_01K10A (antibody, V domains shown)
VH: EVQLVESGGALVQPGGSLRLSCAASGFTFRNYDMHWVRQATGKGLEWVSTIGTAGDTYYPGSVKGRFTISRENAKNSLYLQMNSLRAGDTAVYYCARGGDYYYGMDVWGQGTTVTVSS
VL: EIVLTQSPDTLSLSPGERATLSCRASQSLSSVYLAWYQQKPGQAPRLLIYGASSRATGIPDRFSGTGSGTDFTLTISRLEPEDFAVYYCQQYGSSPFTFGPGTKVDIK
notes: Tested as antibody purified from AlivaMab Mouse hybridoma supernatant (captured by anti-mouse IgG Fc)

binding result [2]: no binding (tested: 100 nM)
B11: 75110_04P06A (antibody, V domains shown)
VH: EVQLVESGGGLVQPGGSLRLSCAASGFTFSNYDMHWVRQATGKGLEWVSTIGTAGDTYYPGSVKGRFTISRENAKNSLYLQMNSLRAGDTAVYYCARGGDYYYGMDVWGQGTTVTVSS
VL: EIVLTQSPDTLSLSPGERATLSCRASQSLSSVYLAWYQQKPGQAPRLLIYGASSRATGIPDRFSGSGSGTDFTLTINRLEPEDFVVYYCQQYGSSPFTFGPGTKVDIK
notes: as for B10

binding result [2]: no binding (tested: 100 nM)
B12: 75110_02I18A (antibody, V domains shown)
VH: EVQVVESGGGLVQPGGSLRLSCAASGFTFSSYDMHWVRQATGKGLEWVSTIGTAGDTYYPGSVKGRFTISRENAKNSLYLQMNSLRAGDTAVYYCARGGYYYYGMDVWGQGTTVTVSS
VL: EIVLTQSPGTLSLSPGERATLSCRASQSVSSSYLAWYQQKPGQSPRLLIHGASSRATGIPDRVSGSGSGTDFTLTISRLEPEDFAVYYCQQYGSSPFTFGPGTKVDIK
notes: as for B10

Cell Binding to Human PanT Signal/Background (of CD4 negative population) [1]: 318 signal/background
B13: CD8B366 (antibody, human IgG1, kappa, V domains shown)
VH: EVQLQQSGPELVRPGASVKLSCTASGFNIKDDYIHWVKQRPEQGLEWIGRIDPANGNPRYAPKFQDKATLTADTSSNTAYLQLSSLTSEDTAVYYCARDDEGYYYFDVWGAGTSVTVSS
VL: DIKMTQSPSYLAASPGETITINCRASKSISKYLAWYQEKPGKTNKVLIYSGSTLQSGIPSRFSGSGSGTDFTLTISSLEPEDFAIYYCQQHNEYPLTFGDGTRLEIKR
notes: Full-length human IgG1, kappa

Cell Binding to Human PanT Signal/Background (of CD4 negative population) [1]: 8 signal/background
B14: CD8B340 (antibody, human IgG1, kappa, V domains shown)
VH: QVQLQQPGAELVKPGASVRLSCKASGYTFTNYWMQWVQQRPGQGLEWIGEIDPSDTFTNYNQNFKDKATLTVDTSSSTAYLQLSSLTSEDSAVYYCARGDWDRDWYFDVWGTGTLVTVSA
VL: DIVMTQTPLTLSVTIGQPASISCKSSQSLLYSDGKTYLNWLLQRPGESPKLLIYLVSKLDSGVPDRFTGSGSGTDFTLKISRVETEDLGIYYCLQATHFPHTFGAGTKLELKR
notes: Full-length human IgG1, kappa

Cell Binding to Human PanT Signal/Background (of CD4 negative population) [1]: 44 signal/background
B15: CD8B245 (antibody, human IgG1, kappa, V domains shown)
VH: EFQLQQSGGGLVQPGGSLSLSCAAPGFTFTDYYMSWVRQSPGKALEWLALSRNKGNGYTTEYSASVKGRFTISRDNSQSILYLQMNVLRAEDSATYYCARTVTGTLFYYALDYWGQGTTVTVSS
VL: DIQMTQSPASLSASVGETVTITCRASENIYSYLAWYQQKQGKSPQFLVYNAKTLAAGVPSRFSGSGSGTQFSLKINRLQPEDFGTYYCQHHYGTPLTFGDGTRLEIKR
notes: Full-length human IgG1, kappa

RPA-T4-PE-Dazzle 594 signal in binning [4]: 16500
gMFI [5]: 8320 gMFI
CD4+ gate RL1 Binding [6]: 227000
gMFI [7]: 38800 gMFI
SKW3 WT vs KO anti-mFc-647 [8]: 9.4 fold
OKT4 A488 signal in binning [9]: 9100
SKW3 WT vs KO anti-hKappa-FITC [10]: 3.2 fold
OKT4a anti-hu A647 signal in binning [11]: 35500
Ibalizumab ELISA binning signal (huCD4-HIS): 1.64e+06
B16: 75110_05E05A (antibody, V domains shown)
VH: QVQLQESGPGLVKPSETLSLTCTVSGGSIGSYYWSWIRQPAGKGLEWIGRIYTSGSTNYNPSLKSRVTMSFDTSKNQFSLKLNSVTAADTAVYYCATDGGVGDSLDYWGQGTLVTVSS
VL: DIVMTQTPLSLPVTPGEPASISCRSSQSLLDSDDGNTYLDWYLQKPGQSPQLLIYTLSYRASGVPDRFSGSGSGTDFTLKISRVEAEDVGVYYCMQHIEFPFTFGPGTKVDIK
notes: Tested as non-clonal hybridoma supernatant (AlivaMab Mouse Kappa), detected with anti-mouse Fc and anti-human kappa
CD4+ Percent Bound of Viable [3]: 28%
